Experiment [1] relates to finishing swine. Description: Urinary urea nitrogen excretion in finishing swine after subcutaneous injection. The class given is in vivo. Particulars: b137 study, FIGS. 3 and 4; barrows, 3 micrograms/kg/day injected twice per day; all time periods for 15 days. On the procedure:
(§1) The microparticles prepared in accordance with the previous examples were used to determine the effect of somatogenin (LY293404) concentration in different PLA/PGA microparticle concentrations. Payout characteristics were measured by urinary urea nitrogen excretion and serum growth hormone levels in finishing swine. The microparticle formulations were placed in suspension, using 2% W/V sodium carboxyl-methyl-cellulose 330 (NaCMC) in Nano-pure II purified water. The suspension was injected subcutaneously in the flank. […] Urinary nitrogen reduction is a measurement of growth hormone which is stimulated by somatogenin release from microparticles. […] The reduction was the greatest for the highest loaded (25%) microparticles, and lowest for the lowest (5%) loaded microparticles. […] The vertical bars in the figures represent the relative standard deviations. The microparticles prepared in accordance with the previous examples were used to determine the payout characteristics of somatogenin (LY293404) when administered in different PLA/PLG microparticle formulations as measured by urinary urea nitrogen excretion and serum growth hormone levels in finishing swine. The microparticle formulations were placed in suspension, using 2% W/V sodium carboxyl-methyl-cellulose 330 (NaCMC) in Nano-pure II purified water. The suspension was injected subcutaneously in the flank. […]

For experiment [2], the system named is finishing swine. The experiment in a line: Serum growth hormone levels in finishing swine after subcutaneous injection. In kind it is in vivo. Particulars: b137 study, FIGS. 3 and 4; barrows, 3 micrograms/kg/day injected twice per day; all time periods for 15 days. On the procedure:
as §1

B1: 4-methylhippuroyl (1) porcine GHRH (2-76)--OH (peptide)
chain: GADAIFTNNYRRVLTQLSARRLLQDILSRQQGERNQEQGARVRLGRQVDSLWADQRQLALESILATLLQEHRNSQG
modifications: 4-methylhippuroyl N-terminus
notes: analog of a natural porcine GHRH prohormone
On to B1, for which the urinary urea excretion entry in experiment [1] is listed as “reduction”. In experiment [2], the “serum GH levels” value is recorded as “elevation”.

Source of the values: patent publication US5635216A, “Microparticle compositions containing peptides, and methods for the preparation thereof” (Eli Lilly and Company, priority 1993, dated 1997).
